Target: T1, MexZ (LexA DNA-binding domain fusion encoded by pSF004, pMS604::mexZ) (P. aeruginosa, UniProt G3XCU9 1-210)
T1 construct: also called repressor of mexXY; mexZ product; source: E. coli SU202, bacterial two-hybrid fusion expressed from pSF004 (pMS604::mexZ)
T1 sequence: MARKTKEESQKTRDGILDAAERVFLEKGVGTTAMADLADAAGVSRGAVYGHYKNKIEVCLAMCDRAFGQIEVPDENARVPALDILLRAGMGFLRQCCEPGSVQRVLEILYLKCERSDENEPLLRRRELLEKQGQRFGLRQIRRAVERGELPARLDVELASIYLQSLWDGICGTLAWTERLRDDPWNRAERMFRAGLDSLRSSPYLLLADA
Assay: two-hybrid; bacterial LexA-based two-hybrid in E. coli SU202 (pMS604 and pDP804 derivatives); cells grown to mid-log phase in L-broth with 5 mM IPTG; interaction represses lacZ, read as reduced β-galactosidase activity
Conditions: partners not purified

B1: ArmZ (PA5471) wild type (LexA DNA-binding domain fusion encoded by pSF005, pDP804::armZ) (natural protein)
chain: MGNYIKPLSAGVALIASDSTWIEGKAIQQLQTTAELDGMCRVVGLPDLHPGRGYPVGAAFFSVGRFYPALVGNDIGCGMALWETGLALGKLSADKLEKRLGNLDLPLDETWSDCIEALDLPAREHWRALGTIGGGNHFAELQQVETVFDQAALHALGLDADRLQLLVHSGSRGLGQAILQEHVSLHGHAGLLDGSLEASAYLARHADALRFAEGNRQLIARRILERLRCDGLELLDINHNLVVPAQVDGVDGWLHRKGATPADQGVLVIPGSRGDYSYLVEPVPSAQSLFSLAHGAGRKWQRGECRERLAARFSVDQLGRTRLGSRVICGDRQLIYEEAPEAYKGIDSVVGALLEAGLLRLVARLKPVLTYKTRGECCR
notes: also called anti-repressor MexZ; ArmZ (WT); source: E. coli SU202, bacterial two-hybrid fusion expressed from pSF005 (pDP804::armZ)
fold reduction of β-galactosidase activity (relative to SU202 carrying the mexZ plasmid only): 3 fold
